Results from the nanobody polyreactivity screen of Harvey et al. (2022).

Assay: yeast display, Sf9 membrane polyspecificity reagent, FACS + sequencing; frameworks hold sequencing errors
In short: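 Sorting gates, low and high (top ~1%), were placed on anti-HA fluorescence to track expression and on streptavidin fluorescence to track reagent binding. A clone's polyreactivity label is taken from the gate it came out of. The reagent was 10% biotinylated, detergent-solubilized Sf9 membrane, applied for 1 hour at 4 °C to galactose-induced yeast display cells.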

| Sequence | polyreactivity (PSR sort gate) |
| --- | --- |
| QVQLVESGGGLVQAGGSLRLSCAASGSTFDWYAMGWYRQAPGKDRELVAAISSDDSTYYADSVKGRFTISRDNAKNTVYLQMNSLIPEDTAVYYCAVDVYSDYGDYGYWGQGTQVTVSS | low polyreactivity |
| QVQLVESGGGLVQAGGSLRLSCAASGSTFPTYSMGWYRQAPGKERELVAAITSGSGTNTYYADSVKGRFTISRDNAKNTVYLQMNSLKPEDTAVYYCAKSFRKKYGWGQGTQVTVSS | high polyreactivity |
| QVQLVESGGGLVQAGGSLRLSCAASGSIFFDYAMGGYRQAPGKERELVAAINSGGTTNYADSVKGRFTISRDNAKNTVYLQMKQPETGRYRGLLLQRFPGYLRWYRWFDYWGQGTQVTVSS | low polyreactivity |
| QVQLVESGGGLVQAGGSLRLSCAASGFTFVWYTMGWYRQAPGKERELVAAISSSGGTTYYADSVKGRFTISRDNAKNTVYLQMNSLKPEDTAVYYCNVAYFYTTPTRGYNYWGQGTQVTVSS | high polyreactivity |
| QVQLVESGGGLVQAGGSLRLSCAASGLIFVNAMGWYRQAPGKEREFVAAITYSTGSTYYADSVKGRFTISRDNAKNTVYLQMNRLKPEDTAVYYCAKDRSGHGTERDYWGQGTQVTVSS | low polyreactivity |
| QVQLVESGGGLVQAGGSLRLSCAASGSIFGNNAMGWYRQARGKERELVAVITDGGNTYYADSVKGRFTISRDNAKNTVYLQMNSLKPEDTAVYYCNADWWGDSDYWGQGTQVTVSS | low polyreactivity |
| QVQLVESGGGLVQAGGSLRLSCAASGSTFYSYVMGWYRQAPGKERELVAAITYSGGRTYYADSVKGRFTISRDNAKNTVYLQMNSLKPEDTAVYYCAKRVFNYQRYDYWGQGTQVTVSS | high polyreactivity |
| QVQLVESGGGLVQAGGSLRLSCAASGSIFNYYAMGWYRQAPGKERELVAAITYGGASTYYADSVKGRFTISRDNAKNTVYLQMNSLKPEDTAVYYCAADSFTRWVFYRSTVRGFGYWGQGTQVTVSS | high polyreactivity |
| QVQLVESGGGLVQAGGSLRLSCAASGIIFYYNAMGWYRQAPGKEREYVASISSRGGSTYYADSVKGRFTISRDNAKNTVYLQMKSLKPEDPAVYYCAAAFDWRRQRYNYWGHGTQVTVSS | high polyreactivity |
| QVQLVESGGGLVQAGGSLRLSCAASGSIFDLYAMGWYRQAPGKERELVDAISSGATTNYADSVKGRFTISRDNAKNTVYLQMNSLKPEDTAVYYCAKYYRISSLYVIVSAYDYWGQGTQVTVSS | low polyreactivity |
| QVQLVESGGGLVQAGGSLRLSCAASGLIFRYNTMGWYRQAPGKERELVAAITSSGGSTYYADSVKGRFTISRDNAKNTVYLQMNSLKPEDTAVYYCAKRSFYFSDYDYWGQGTQVTVSS | high polyreactivity |
| QVQLVESGGGLVQAGGSLRLSCAASGRTCYDNTMGWSRQAPGTEREFVADITGSGGSTHYADSVKGRFTISRDNAKNTVYLQLNSLKPEDTAVYYCAADYRYNRGITSNKDYDYWGQGTQVTVSS | low polyreactivity |
| QVQLVESGGGLVQAGGSLRISCAASGSTFWYYAMGRYREAPGKERELVAAIRRGGSTYYADSVKGRFTISRDNAKNTVYLQLNSLKPDDTAGYYCAAERPYKTFGYGDWGQGTQVTVSS | high polyreactivity |
| QVQLVESGGGLVQAGGSLRLSCAASGSTFTRNPLGWYRQAPGKERELVATISRSGGSTYYADSVKGRFTISRDNAKNTVYLQMNSLKPEDTAVYYCARPYQYYKFYSHDYWGQGTQVTVSS | high polyreactivity |
| QVQLVESGGGLVQAGGSLRLSCAASGSTIYFYAMGWYRQAPGKERELVAAITWSGGRTYYADSVKGRFTISRDNAKNTVYLQMNSLKPEDTAVYYCAAVRPPLARLYVAAKRFDSWGQGTQVTVSS | low polyreactivity |
| QVQLVESGGGLVQAGGSLRLSCAASGRTFKYYAMGWYRQAPGKERELVAAITRSGSTNYADSVKGRFTISRDNAKNSVYLQMNSLKPEDTAVYYCAADVTLYYRGRRYYYWGQGTQVTVSS | high polyreactivity |
| QVQLVESGGGLVQAGGSLRISCAASGRIFGLYAMGWYRQAPGKERELVATINNSGGSTYYADSVKGRFTISRDNAKNTVYLEMKSLKPEDTAVYYCNAEFLYAASFIEYDYWGQVTQVTVSS | high polyreactivity |
| QVQLVESGGGLVQAGGSLRLSCAASGGIFSAYSMGWYRKAPGKERELVASITTDGGITYYADSVKGRFTISRDNAKNTVYLQMNSLKPEDTAVYYCAVLQYYYPYYYWGQGTQVTVSS | low polyreactivity |
| QVQLVESGGGLVQAGGSLRLSCAASGFIFDSNAMGWYRQAPGKERELVAAISRRGGSTYYADSVKGRFTISRDNAKNTVYLQMNSLKPEDTAVYYCNAEYGSHVKYGYWGQGTQVTVSS | high polyreactivity |
| QFQLVESGGGLVQAGGSIRLSCAASGSTFTIYAMGWYRQAPGKERELVAAISGTGGTKYADSVKGRFTISRDNAKNTVYLQMTSLKPEDTAVYYCAARYMLWDGDSWTEFDYWGQGTQVTVSS | low polyreactivity |
| QFHHVESGGGLVQAGGSLRLTCAATGIIILGNAKGWYRQAPGKERELVATITSGGTTNYADSVKGRFTISRDNAKNTVYLQMNSLIPEDTAVYYCNKRSYDQQEYEYDYWGQGTQVTVSS | low polyreactivity |
| QVQLVESRGGLVQAGGSLRLSCAASGSTCFTNDMGWYRQAPGTERELVASISPSTGSTYYADSVKGRVTISRDNAKNTVSLQMNSLKPDDTAVYYCAADEWYYSYNDGNLYDYWGQGTQVTVSS | low polyreactivity |
| QVQLVESVGGLVQAGGRLRLSCDASGFIFANYAMGWYRQATGKERELVAAITSGTGTNYADSVKGRFTISRDNAKNTVYLQMNSLKPEDTAVYYCAAYYTWLSEFGYWGQGTQVTVSS | low polyreactivity |
| QVQLVESGGGLVQAGGSLRLSCAASGRILYAYTMGWYRQAPGKERELVATISRSGGNTYYADSVKGRFTISRDNAKNTVYLQMNSLKPEDTAVYYCAVGKYGTQRVKLYQYRYNYWGQGTQVTVSS | high polyreactivity |
| QVQLVESGGGLVQAGGSLRLSCAASGRTFGYNAMGWYRQAPGKERELVAAITSGGGTKYADSVKGRFTISRDNAKNTVYLQMNSLKPEDTAVYYCAATYLYEWSRFVYDGLYYWGQGTQVTVSS | low polyreactivity |
| QVQLVESGGGLVQAGGSLRLSCAASGRIFLGNAMGWYRQAPGKERELVAAIDASGGSTYYADSVKGRFTISRDNAKNTVYLQMNSLKPEDTAVYYCAADRGFLRSFAPGNMDYWGQGTQVTVSS | low polyreactivity |
| QVQLVESGGGLVQAGGSLRLSCAASGSTFVGNAMGWYRQAPGKERELVANITSGGSTNYADSVKGRFTISRDNAKNTVYLQMNSLKPEDTAVYYCAAVYLWSQRREYWGQGTQVTVSS | low polyreactivity |
| QGQLVESGGGLVQAGGSLRLSCAASGLIFYKYAMGWYRQAPGKERELVAVISWSGGSTYYADSVKGRFTISRDNAKNTVYLQMNRLKPEDTAVYYCAADTSYYRIRGWFGRVDYGYWGQGTQVTVSS | high polyreactivity |
| HVQLQERGGGLVQAGGSLRPSCAARGTISDGVPMGWYRQAPGEERELVATTVLGATTNYADSVKGRFTISRGNAKNTVYLQMNSLNPEETAVYYCAAPLRYDKGFSYWGQGTQVTVSS | low polyreactivity |
| QVQLVESGGGLVQAGGILRLSCAASGIIFGYYAMGWYRQAPGKERELVAAISSIGGSTYYADSVKGRFTISRDNAKNTVYLQMNSLKPEDTAVYYCAAKYYGRYYRYLGSSFDYWGQGTQVTVSS | high polyreactivity |
